Here are results for one molecule from patent publication US20150119342A1 (published 2015).

The target in assay [1] is T1, human cIAP2 BIR3 domain with C-terminal 6xHis-tag (human, UniProt Q13489 237-349, limits assumed).
T1 construct: domain: BIR3
Kind of assay: fluorescence polarization, saturation binding; 2 nM probe, protein 0 to 20 µM. The protocol:
(§1) After shaking (15 min) the plate was incubated for 3 hours at room temperature. […] All experiments were performed in black, flat-bottom 96-well microplates (Greiner bio-one).

The target of assay [2] is T2, human cIAP1 BIR3 domain with C-terminal 6xHis-tag (human, UniProt Q13490 251-363, limits assumed).
T2 construct: domain: BIR3
T2 sequence (Q13490 other isoform, or with tags, fused parts or gaps limits assumed): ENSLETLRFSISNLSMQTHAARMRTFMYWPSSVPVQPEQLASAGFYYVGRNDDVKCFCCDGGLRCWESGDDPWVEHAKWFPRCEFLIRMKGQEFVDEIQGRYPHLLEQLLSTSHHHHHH
Described as above. The protocol: as §1

Where no end group is shown, it is not given here. [ ]: non-standard residue; d: D form. The star is where a group is joined. 5FAM = O=C1OC2(c3ccc(O)cc3Oc3cc(O)ccc32)c2ccc(C(=O)*)cc21; Abu = CC[C@H](N)C(=O)O

T1 sequence (Q13489 other isoform, or with tags, fused parts or gaps limits assumed): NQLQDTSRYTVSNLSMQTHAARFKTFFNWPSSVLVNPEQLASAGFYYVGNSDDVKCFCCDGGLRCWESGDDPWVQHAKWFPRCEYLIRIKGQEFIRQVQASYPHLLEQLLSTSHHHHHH

B1: Fluorescent-labelled Smac peptide [AbuRPF-K(5-Fam)-NH2] (peptide)
peptide: [Abu]RPFK(5FAM)-NH2
modifications: N-terminus assumed
SMILES: CC[C@H](N)C(=O)N[C@@H](CCCNC(=N)N)C(=O)N1CCC[C@H]1C(=O)N[C@@H](Cc1ccccc1)C(=O)N[C@@H](CCCCNC(=O)c1ccc2c(c1)C(=O)OC21c2ccc(O)cc2Oc2cc(O)ccc21)C(N)=O
notes: Synthetic labelled probe used in the fluorescence polarization assays; also called FITC-SMAC; fluorescently-labelled Smac peptide
On to B1, for which the figures for the Kd in assay [1] and in assay [2] were 23.6 nM and 4.8 nM, respectively.
